# Measurements published in the supplement of paper PMC10266784.
# B1: library; numbered along this chain (parent)
# chain: MAAAAAAAAEQQSSNGPVKKSMREKAVERRSVNKEHNSNFKAGYIPIDEDRLHKTGLRGRKGNLAICVIILLFILAVINLIITLVIWAVIRIGPNGCDSMEFHESGLLRFKQVSDMGVIHPLYKSTVGGRRNENLVITGNNQPIVFQQGTTKLSVENNKTSITSDIGMQFFDPRTQNILFSTDYETHEFHLPSGVKSLNVQKASTERITSNATSDLNIKVDGRAIVRGNEGVFIMGKTIEFHMGGNMELKAENSIILNGSVMVSTTRLPSSSSGDQLGSGDWVRYKLCMCADGTLFKVQVTSQNMGCQISDNPCGNTH
# Variants of: B1
# Experiment: SGCB cell-surface expression functional score (HA stain, bin4 vs bin1, normalised to synonymous) (log10 ratio); higher = more cell-surface SGCB (functional)
# Procedure: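 Deep mutational scan of full-length human SGCB (YFP-SGCB-HA, NNN codon sublibraries A-F) delivered by lentivirus at low MOI into ADG-HEK293 cells stably expressing SGCA, SGCD and SGCG. YFP-positive cells were stained for surface HA on unpermeabilized cells and FACS-sorted into bins. The functional score is log10(frequency in high bin 4 / frequency in low bin 1), normalised per chunk so that synonymous variants have mean 0 and SD 0.5. Scores are the median over codons and over duplicate biological replicates; scores below -0.5 are called non-functional. Scale: negative means deleterious.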
row,Variant,SGCB cell-surface expression functional score (log10)
1,MAAAAAAAAEQQSSNGPVKKSMREKAVERRSVNKEHNSNFKAGYIPIDEDRLHKTVLRGRKGNLAICVIILLFILAVINLIITLVIWAVIRIGPNGCDSMEFHESGLLRFKQVSDMGVIHPLYKSTVGGRRNENLVITGNNQPIVFQQGTTKLSVENNKTSITSDIGMQFFDPRTQNILFSTDYETHEFHLPSGVKSLNVQKASTERITSNATSDLNIKVDGRAIVRGNEGVFIMGKTIEFHMGGNMELKAENSIILNGSVMVSTTRLPSSSSGDQLGSGDWVRYKLCMCADGTLFKVQVTSQNMGCQISDNPCGNTH [G56V],0.05
2,MAAAAAAAAEQQSSNGPVKKSMREKAVERRSVNKEHNSNFKAGYIPIDEDRLHKTYLRGRKGNLAICVIILLFILAVINLIITLVIWAVIRIGPNGCDSMEFHESGLLRFKQVSDMGVIHPLYKSTVGGRRNENLVITGNNQPIVFQQGTTKLSVENNKTSITSDIGMQFFDPRTQNILFSTDYETHEFHLPSGVKSLNVQKASTERITSNATSDLNIKVDGRAIVRGNEGVFIMGKTIEFHMGGNMELKAENSIILNGSVMVSTTRLPSSSSGDQLGSGDWVRYKLCMCADGTLFKVQVTSQNMGCQISDNPCGNTH [G56Y],0.34
3,MAAAAAAAAEQQSSNGPVKKSMREKAVERRSVNKEHNSNFKAGYIPIDEDRLHKTSLRGRKGNLAICVIILLFILAVINLIITLVIWAVIRIGPNGCDSMEFHESGLLRFKQVSDMGVIHPLYKSTVGGRRNENLVITGNNQPIVFQQGTTKLSVENNKTSITSDIGMQFFDPRTQNILFSTDYETHEFHLPSGVKSLNVQKASTERITSNATSDLNIKVDGRAIVRGNEGVFIMGKTIEFHMGGNMELKAENSIILNGSVMVSTTRLPSSSSGDQLGSGDWVRYKLCMCADGTLFKVQVTSQNMGCQISDNPCGNTH [G56S],0.21
4,MAAAAAAAAEQQSSNGPVKKSMREKAVERRSVNKEHNSNFKAGYIPIDEDRLHKTTLRGRKGNLAICVIILLFILAVINLIITLVIWAVIRIGPNGCDSMEFHESGLLRFKQVSDMGVIHPLYKSTVGGRRNENLVITGNNQPIVFQQGTTKLSVENNKTSITSDIGMQFFDPRTQNILFSTDYETHEFHLPSGVKSLNVQKASTERITSNATSDLNIKVDGRAIVRGNEGVFIMGKTIEFHMGGNMELKAENSIILNGSVMVSTTRLPSSSSGDQLGSGDWVRYKLCMCADGTLFKVQVTSQNMGCQISDNPCGNTH [G56T],0.4
5,MAAAAAAAAEQQSSNGPVKKSMREKAVERRSVNKEHNSNFKAGYIPIDEDRLHKTWLRGRKGNLAICVIILLFILAVINLIITLVIWAVIRIGPNGCDSMEFHESGLLRFKQVSDMGVIHPLYKSTVGGRRNENLVITGNNQPIVFQQGTTKLSVENNKTSITSDIGMQFFDPRTQNILFSTDYETHEFHLPSGVKSLNVQKASTERITSNATSDLNIKVDGRAIVRGNEGVFIMGKTIEFHMGGNMELKAENSIILNGSVMVSTTRLPSSSSGDQLGSGDWVRYKLCMCADGTLFKVQVTSQNMGCQISDNPCGNTH [G56W],-0.16
6,MAAAAAAAAEQQSSNGPVKKSMREKAVERRSVNKEHNSNFKAGYIPIDEDRLHKTGDRGRKGNLAICVIILLFILAVINLIITLVIWAVIRIGPNGCDSMEFHESGLLRFKQVSDMGVIHPLYKSTVGGRRNENLVITGNNQPIVFQQGTTKLSVENNKTSITSDIGMQFFDPRTQNILFSTDYETHEFHLPSGVKSLNVQKASTERITSNATSDLNIKVDGRAIVRGNEGVFIMGKTIEFHMGGNMELKAENSIILNGSVMVSTTRLPSSSSGDQLGSGDWVRYKLCMCADGTLFKVQVTSQNMGCQISDNPCGNTH [L57D],-0.4
7,MAAAAAAAAEQQSSNGPVKKSMREKAVERRSVNKEHNSNFKAGYIPIDEDRLHKTGARGRKGNLAICVIILLFILAVINLIITLVIWAVIRIGPNGCDSMEFHESGLLRFKQVSDMGVIHPLYKSTVGGRRNENLVITGNNQPIVFQQGTTKLSVENNKTSITSDIGMQFFDPRTQNILFSTDYETHEFHLPSGVKSLNVQKASTERITSNATSDLNIKVDGRAIVRGNEGVFIMGKTIEFHMGGNMELKAENSIILNGSVMVSTTRLPSSSSGDQLGSGDWVRYKLCMCADGTLFKVQVTSQNMGCQISDNPCGNTH [L57A],0.45
8,MAAAAAAAAEQQSSNGPVKKSMREKAVERRSVNKEHNSNFKAGYIPIDEDRLHKTGFRGRKGNLAICVIILLFILAVINLIITLVIWAVIRIGPNGCDSMEFHESGLLRFKQVSDMGVIHPLYKSTVGGRRNENLVITGNNQPIVFQQGTTKLSVENNKTSITSDIGMQFFDPRTQNILFSTDYETHEFHLPSGVKSLNVQKASTERITSNATSDLNIKVDGRAIVRGNEGVFIMGKTIEFHMGGNMELKAENSIILNGSVMVSTTRLPSSSSGDQLGSGDWVRYKLCMCADGTLFKVQVTSQNMGCQISDNPCGNTH [L57F],0.06
9,MAAAAAAAAEQQSSNGPVKKSMREKAVERRSVNKEHNSNFKAGYIPIDEDRLHKTGCRGRKGNLAICVIILLFILAVINLIITLVIWAVIRIGPNGCDSMEFHESGLLRFKQVSDMGVIHPLYKSTVGGRRNENLVITGNNQPIVFQQGTTKLSVENNKTSITSDIGMQFFDPRTQNILFSTDYETHEFHLPSGVKSLNVQKASTERITSNATSDLNIKVDGRAIVRGNEGVFIMGKTIEFHMGGNMELKAENSIILNGSVMVSTTRLPSSSSGDQLGSGDWVRYKLCMCADGTLFKVQVTSQNMGCQISDNPCGNTH [L57C],0.07
10,MAAAAAAAAEQQSSNGPVKKSMREKAVERRSVNKEHNSNFKAGYIPIDEDRLHKTGERGRKGNLAICVIILLFILAVINLIITLVIWAVIRIGPNGCDSMEFHESGLLRFKQVSDMGVIHPLYKSTVGGRRNENLVITGNNQPIVFQQGTTKLSVENNKTSITSDIGMQFFDPRTQNILFSTDYETHEFHLPSGVKSLNVQKASTERITSNATSDLNIKVDGRAIVRGNEGVFIMGKTIEFHMGGNMELKAENSIILNGSVMVSTTRLPSSSSGDQLGSGDWVRYKLCMCADGTLFKVQVTSQNMGCQISDNPCGNTH [L57E],0.04
